Test results as given in PMC7492729, “CsrA-Mediated Translational Activation of ymdA Expression in Escherichia coli”.

Experiments:
Details in all cases: protein: recombinant; tags: His6 (C-terminal, as named CsrA-H6); chain copies: 2; label: 5'-32P
CsrA-H6 [1] = target: T1, CsrA-H6 (Escherichia coli, UniProt P69913 1-61); test: EMSA; 10 mM MgCl2, 40 ng yeast tRNA; 10 mM Tris-HCl pH 7.5, 10 mM MgCl2, 100 mM KCl, 40 ng yeast tRNA per 10 ul, 7.5% glycerol, 0.1 mg/ml xylene cyanol, 0.1 nM RNA (2 nM RNA plus 1 ug acetylated BSA for footprint), 37 C 30 min
T1 sequence (P69913 whole entry): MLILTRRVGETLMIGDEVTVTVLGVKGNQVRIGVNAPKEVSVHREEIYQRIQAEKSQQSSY

CsrA-H6 [2] = target: T1, CsrA-H6; test: RNase T1 footprinting; 10 mM MgCl2; BS1 and BS2 protected, BS* and SD GGA not; 10 mM Tris-HCl pH 7.5, 10 mM MgCl2, 100 mM KCl, 40 ng yeast tRNA per 10 ul, 7.5% glycerol, 0.1 mg/ml xylene cyanol, 0.1 nM RNA (2 nM RNA plus 1 ug acetylated BSA for footprint), 37 C 30 min
CsrA-H6 [3] = target: T1, CsrA-H6; test: RNase T1 footprinting; 10 mM MgCl2; binds BS1 in absence of BS2; 10 mM Tris-HCl pH 7.5, 10 mM MgCl2, 100 mM KCl, 40 ng yeast tRNA per 10 ul, 7.5% glycerol, 0.1 mg/ml xylene cyanol, 0.1 nM RNA (2 nM RNA plus 1 ug acetylated BSA for footprint), 37 C 30 min

B1: ymdA leader RNA (EMSA) (structured_RNA)
RNA: AAGAUGAAUCUGGAGAGAAUGGUCUGCUGCGAAUCAGCCAACCUGAAAGUAUGGAUAACACAACCCUCAAGGAUGACUAAUCAUUGAGGAAAUAGAAUAAA
Kd (CsrA-H6 [1]): 48 ± 3 nM

B2: ymdA leader RNA (footprint) (structured_RNA)
RNA: GUCUUAAUUUGUUGAAAUAUCGAGCAUAAGAUGAAUCUGGAGAGAAUGGUCUGCUGCGAAUCAGCCAACCUGAAAGUAUGGAUAACACAACCCUCAAGGAUGACUAAUCAUUGAGGAAAUAGAAUAAA
binding result (CsrA-H6 [2]): binds

B3: ymdA leader RNA BS2 mutant (footprint) (structured_RNA)
RNA: GUCUUAAUUUGUUGAAAUAUCGAGCAUAAGAUGAAUCUGGAGAGAAUGGUCUGCUGCGAAUCAGCCAACCUGAAAGUAUGGAUAACACAACCCUCAAAGAUGACUAAUCAUUGAGGAAAUAGAAUAAA
binding result (CsrA-H6 [3]): binds
